Data from doi:10.1101/2021.11.15.468682.

Target: T1, HsPlk4 PB3 (aa 884-970) (Homo sapiens), O00444
T1 chain: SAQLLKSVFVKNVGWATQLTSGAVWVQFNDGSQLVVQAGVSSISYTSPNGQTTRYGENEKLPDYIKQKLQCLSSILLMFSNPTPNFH
Test: SEC-MALS
Details: remark: other sources report otherwise

stoichiometry N: 2
B1: HsPlk4 PB3 (aa 884-970), O00444 884-970 (domain or fragment)
chain: T1 chain
